Holding throughout (test): potentiometry
In one series the target is Glu117. To be noted: 298 K, 0.1 M KCl, none (peptide dissolved in 4 x 10^-3 M HCl).
The target of another series is Cterm120. To be noted: 298 K; 0.1 M KCl; none (peptide dissolved in 4 x 10^-3 M HCl); metal-free peptide. Ligand concentration is 0.5 mM in Methods, but the Table 3 footnote says 0.001 M.
For series [1], the target named is Cterm135 (UniProt position 135, AGEDAI-----). As to conditions: 298 K; 0.1 M KCl; none (peptide dissolved in 4 x 10^-3 M HCl); metal-free peptide. Ligand concentration is 0.5 mM in Methods, but the Table 3 footnote says 0.001 M.
In series [2] the target is Glu132 (UniProt position 132, …--). To be noted: 298 K; 0.1 M KCl; none (peptide dissolved in 4 x 10^-3 M HCl); metal-free peptide. Ligand concentration is 0.5 mM in Methods, but the Table 3 footnote says 0.001 M.
Where [3] appears, read: metal-free peptide. Ligand concentration is 0.5 mM in Methods, but the Table 3 footnote says 0.001 M.

B1: BigR4 alpha5 domain peptide mutant H106A (L3) (Mycobacterium smegmatis; H106A) (peptide)
chain: DHHLAAIVVDAIAHASEDRR
In general, pKa refers to the negative logarithm of the acid dissociation constant. A low value points to a stronger acid or weaker base. As to B1, the results for the pKa with Glu117 (setting [3]) and in the series with Cterm120 were 5,91 and 2,97, respectively.

B2: BigR4 alpha5 domain peptide mutant H102A (L2) (Mycobacterium smegmatis; H102A) (peptide)
chain: DAHLAHIVVDAIAHASEDRR
For B2, the pKa with Glu117 (Ni(II)-bound, metal to ligand 1:1 (NiH4L to NiH3L step)) came to 5.61; with Glu117 (setting [3]) it was 6.10; with Cterm120, 3.35.

B3: BigR4 alpha5 metal-binding domain peptide (L1), HTH ArsR-type transcriptional regulator fragment 101-120 (Mycobacterium smegmatis) (peptide)
chain: DHHLAHIVVDAIAHASEDRR
Turning to B3, the pKa with Glu117 (setting [3]) is listed as 5.80; with Cterm120, 3.23.

B4: SmtB alpha5 metal-binding domain peptide (L4), HTH-type transcriptional repressor SmtB fragment 116-135 (Mycobacterium tuberculosis) (peptide)
chain: DHHLAHIVLDAVAHAGEDAI
B4: the pKa is given as 3.16 in series [1] and 5.74 in series [2].

Source of the values: PMC9241078.
